Test results published in patent US11078246B2, “Peptides binding to Bfl-1” (Dana-Farber Cancer Institute, Inc., priority 2015, dated 2021).

What was measured:
Assay type in all cases: binding
[1] = molecular target: T1, tBID/HA-BFL-1ΔC C4S/C19S (Homo sapiens, UniProt Q16548, C19S/C4S); assay: Competition with tBID in 293T lysates (HA immunoprecipitation); conditions: 5 μM biotinylated peptide, 0.25 μM tBID, 6 h
T1 construct: cDNA encoding BFL-1ΔC (aa 1-153) was cloned into the pET19b expression vector; expressed in transfected cells; host or cells: 293T
T1 sequence (Q16548 1-153 C4S/C19S): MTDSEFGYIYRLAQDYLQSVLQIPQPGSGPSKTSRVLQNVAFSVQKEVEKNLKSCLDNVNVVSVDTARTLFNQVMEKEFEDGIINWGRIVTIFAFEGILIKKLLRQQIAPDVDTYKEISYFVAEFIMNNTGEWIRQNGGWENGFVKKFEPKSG
Method: Protein concentration of the soluble fraction was measured using a BCA kit according to manufacturer's instructions (Thermo Scientific). […] After 24 h, cells were trypsinized, washed with PBS, lysed in 1% CHAPS buffer, and the supernatant collected for protein concentration determination by BCA kit. […] Cells were harvested and lysed as above, and incubated overnight with anti-HA agarose beads (Pierce). The beads were washed 3 times with lysis buffer, eluted by boiling in LDS buffer, and subjected to western analysis with HA and biotin antibodies. […] Biotin capture was accomplished by incubating the mixture with high-capacity SA agarose (Thermo Scientific) for 2 h at 4° C., followed by centrifugation and washing the pelleted beads with 3×1 mL lysis buffer.

[2] = molecular target: T2, tBID/FLAG-MCL-1 (Homo sapiens, UniProt Q07820); assay: Competition with tBID in 293T lysates (FLAG immunoprecipitation); conditions: 5 μM biotinylated peptide, non-covalent
T2 construct: expressed in transfected cells; host or cells: 293T
Method: (§1) 293T cells were maintained in DMEM containing 10% FBS and penicillin/streptomycin, and transfections performed with 2 μg pCMV plasmid containing HA-BFL-1ΔC C4S/C19S using X-tremeGENE 9 (Roche). For lysate experiments, cells were trypsinized 24 hours post-transfection, washed with PBS, and lysed by incubation with 1% CHAPS lysis buffer (150 mM NaCl, 50 mM Tris pH 7.4, 100 mM DTT). Protein concentration of the soluble fraction was measured using a BCA kit according to manufacturer's instructions (Thermo Scientific). […] Samples were then boiled in LDS buffer and subjected to western analysis using 1:1000 dilutions of HA (Sigma-Aldrich. #12CA5) and biotin (Abcam, #53494) antibodies. To evaluate the capacity of biotinylated SAHBs to compete with tBID for interactions with BFL-1 and MCL-1, 293T cells were transfected with either HA-BFL-1ΔC C4S/C19S or FLAG-MCL-1 in the p3XFLAG-CMV-10 vector (Sigma) as above. After 24 h, cells were trypsinized, washed with PBS, lysed in 1% CHAPS buffer, and the supernatant collected for protein concentration determination by BCA kit. […] The mixtures were then subjected to HA or FLAG (Sigma-Aldrich, F7425) immunoprecipitation, followed by western analysis using 1:1000 dilutions of HA, FLAG, biotin, and BID (Santa Cruz sc-11423) antibodies. […] Cells were harvested and lysed as above, and incubated overnight with anti-HA agarose beads (Pierce). […]

[3] = molecular target: T3, MCL-1 (Homo sapiens, UniProt Q07820); assay: SA pull-down from A375P lysates, MCL-1 western; conditions: A375P lysate, biotinylated peptides
T3 construct: we incubated A375P lysates with the corresponding biotinylated BIM SAHBs; endogenous in cells; host or cells: A375P melanoma cell lysate
Method: as §1

T2 sequence (Q07820 whole entry): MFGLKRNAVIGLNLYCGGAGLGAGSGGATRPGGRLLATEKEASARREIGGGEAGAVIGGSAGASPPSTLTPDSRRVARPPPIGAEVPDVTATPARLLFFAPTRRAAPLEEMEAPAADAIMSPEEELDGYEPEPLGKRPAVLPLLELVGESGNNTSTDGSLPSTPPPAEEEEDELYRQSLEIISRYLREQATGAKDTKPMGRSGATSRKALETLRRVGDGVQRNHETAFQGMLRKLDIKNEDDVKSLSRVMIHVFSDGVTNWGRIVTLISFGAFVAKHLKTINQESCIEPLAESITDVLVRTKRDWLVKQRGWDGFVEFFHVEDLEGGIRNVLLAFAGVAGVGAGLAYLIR

With “BIM SAHBA: stapled BIM BH3 peptide (aa 147-166) lacking the acrylamide-based warhead” the “competition with tBID for HA-BFL-1 binding” value [1] was “incapable of competing with tBID”, the “competition with tBID for FLAG-MCL-1” value [2] was “equally effective” and the “binding to MCL-1” value [3] was “equivalent binding”.
